Reference: patent publication US8623627B2, “Labelling of fusion proteins with synthetic probes” (New England Biolabs, Inc, priority 2006, dated 2014)

T1: 6×His-^NAGT (Homo sapiens, UniProt P16455, A127T/A154D/C150Q/C62A/G131K/G132T/G153L/K125A/K32I/L33F/M134L/N157G/Q115S/Q116H/R128A/R135S/S151G/S152D/S159E)
T1 construct: ^NAGT is a 182 amino acid mutant of ^wtAGT in which the last 25 amino acids are deleted
T1 sequence (P16455 1-182 K32I/L33F/C62A/Q115S/Q116H/K125A/A127T/R128A/G131K/G132T/M134L/R135S/C150Q/S151G/S152D/G153L/A154D/N157G/S159E): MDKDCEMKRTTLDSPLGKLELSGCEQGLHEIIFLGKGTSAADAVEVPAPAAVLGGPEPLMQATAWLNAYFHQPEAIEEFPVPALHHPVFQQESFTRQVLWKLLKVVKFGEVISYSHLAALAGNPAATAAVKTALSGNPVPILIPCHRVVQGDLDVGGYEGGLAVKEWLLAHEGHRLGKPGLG

T2: GST-ACT1 (Homo sapiens, UniProt P16455, A127T/A154D/C150Q/C62A/G131S/G132T/G153L/K125A/K32I/L33F/M134L/N157G/Q115S/Q116H/R128A/R135D/S151G/S152D/S159M/V148E/Y114R)
T2 construct: made in house
T2 sequence (P16455 1-182 K32I/L33F/C62A/Y114R/Q115S/Q116H/K125A/A127T/R128A/G131S/G132T/M134L/R135D/V148E/C150Q/S151G/S152D/G153L/A154D/N157G/S159M): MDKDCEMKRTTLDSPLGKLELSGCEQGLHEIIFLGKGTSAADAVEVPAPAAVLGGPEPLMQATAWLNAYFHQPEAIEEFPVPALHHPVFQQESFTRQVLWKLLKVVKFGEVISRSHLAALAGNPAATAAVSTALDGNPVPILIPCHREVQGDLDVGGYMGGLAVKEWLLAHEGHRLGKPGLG


Key:
[1] = target: T1, 6×His-^NAGT; assay: In vitro specific dual labelling assay, labelling of 6×His-^NAGT; type: biochemical; conditions: equimolar GST-ACT1 and 6×His-^NAGT 0.5 μM, single substrate 5 μM, 24° C., 60 minutes
Description: (§1) Fluorescent dye-labelled protein mixtures were analyzed by SDS-PAGE, see Example 12. GST-ACT1: fusion protein of ACT 1 (SEQ ID NO:1) with glutathione S-transferase (GST). 6×His-AGT: fusion protein of ^NAGT (SEQ ID NO:2) with the short peptide 6×His. […] BCFL: compound 5 (Example 4). BCCy5: compound 10 (Example 8).
(§2) Labelling reactions were quenched by addition of 4× SDS buffer (8% SDS, 10% β-mercaptoethanol, 240 mM Tris pH 6.8, 40% glycerol) and incubation for 5 min at 95° C. Fluorescent dye-labelled protein mixtures were analyzed by SDS-PAGE as described above.

[2] = target: T2, GST-ACT1; assay: In vitro specific dual labelling assay, labelling of GST-ACT1; type: biochemical; conditions: equimolar GST-ACT1 and 6×His-^NAGT 0.5 μM, single substrate 5 μM, 24° C., 60 minutes
Description: as §1, §2

[3] = Reaction rates of labelling of GST fusion proteins with BCFL; type: biochemical; conditions: for kBCFL: second-order rate constant, GST-fusion protein with BCFL, 50 mM HEPES pH 7.2, 24° C.
Description: (§3) The fluorescent readout of an SDS gel run after different time of incubation is shown on top with the corresponding graph at the bottom. The percentage of ACT-Fluorescein conjugate (% ACT-FL) formed from ACT is shown vs. time of incubation (min). […] GST-ACT10: fusion protein of ACT 10 (SEQ ID NO:12) with glutathione S-transferase (GST).
(§4) The genes of mutants isolated after phage selection according to Example 9 were amplified by PCR using primers 6 (N, AGT, SEQ ID NO:8) and 7 (C, AGT, SEQ ID NO:9) that contain, respectively, BamH1 and EcoR1 restriction sites for subsequent subcloning into pGEX-2T vector (Amersham Biosciences, Otelfingen, Switzerland). Expression and purification of proteins as GST-ACT fusion proteins were performed as previously described for AGT fusion proteins (A. Juillerat, T. Gronemeyer, A. Keppler, S. Grendreizig, H. Pick, H. Vogel, K. Johnsson, Chem. Biol. 10:313, 2003). […] Samples were taken at different times and the labelling reaction was quenched by addition of 4× SDS buffer (8% SDS, 10% β-mercaptoethanol, 240 mM Tris pH 6.8, 40% glycerol) and incubation at 95° C. for 5 min. The reaction advancement was determined by detection of the fluorescent dye-labelled proteins in SDS-PAGE gel and quantification of fluorescence intensity using a Pharox FX™ molecular imager. The data were fitted to a pseudo-first order reaction model. Second-order rate constants were then obtained by dividing the pseudo first-order constant by the concentration of fluorogenic substrate.

[4] = Reaction rates of labelling of GST fusion proteins with BGFL; type: biochemical; conditions: for kBGFL: second-order rate constant, GST-fusion protein with BGFL, 50 mM HEPES pH 7.2, 24° C.
Description: as §3, §4

[5] = Urea-induced unfolding, read out as ACT-Fluorescein formed with BCFL; type: physicochemical; conditions: for half unfolding urea concentration C1/2: protein 0.5 μM, urea 0 to 8 M for 30 minutes, then 20 μM BCFL for 2 hours
Description: Shown is the percentage of ACT-Fluorescein (% ACT-FL) formed. The value obtained at 0 M urea [(NH2)2CO] is set to 100%. Protein (0.5 μM) was incubated in kinetic buffer (50 mM HEPES, pH 7.2, 1 mM DTT) supplemented with urea (0 to 8 M) for 30 minutes. Then the solution was adjusted to 20 μM BCFL and incubated for 2 hours. Samples were then boiled 5 min at 95° C. in SDS buffer. Fluorescent dye-labelled protein mixtures were analyzed by SDS-PAGE. The data set was fitted with Y=100/(1+10^((log C1/2−X)*HillSlope)) to get the half unfolding urea concentration C1/2. The following values of C1/2 were found for the different mutants: • ACT1 2.8±0.1 M; ACT9 4.1±0.1 M; ACT10 5.1±0.2 M.

[6] = versus ^wtAGT; cited from earlier work

labelling of 6×His-^NAGT [1]	Molecule	labelling of GST-ACT1 [2]	kBCFL [3]	kBGFL [4]	half unfolding urea concentration C1/2 [5]	also measured
complete labelling	O^6-[4-(Cy5)-Aminomethyl]-benzyl guanine [BGCy5]					
6%	N-[4-(4-Aminopyrimidin-2-yloxymethyl)-benzyl]-Cy5-carboxamide [BCCy5]	complete labelling				
	ACT 10: alkylcytosine transferase 10, SEQ ID NO:12, from error prone PCR of ACT9 (protein, alyklcytosine transferase 10 derived from O6- alkylguanine-DNA alkyltransferase) MDKDCEMKRTTLDSPLGKLELSGCEQGLHEIIFLGKGTSAADAVEVPAPAAVLGGPEPLIQATAWLNAYFHQPEAIEEFPVPALHHPVFQQESFTRQVLWKLLKVVKFGEVISESHLAALVGNPAATAAVNTALDGNPVPILIPCHRVVQGDSDVGPYLGGLAVKEWLLAHEGHRLGKPGLG		1130 s⁻¹ M⁻¹	10 s⁻¹ M⁻¹	5.1 ± 0.2 M	reactivity towards benzylcytosine [3]: high reactivity; kBC ([3]; FIG. 2, 0.5 μM GST-ACT10 with BCFL): 1130 ± 150 M⁻¹ s⁻¹; kBG ([4]; FIG. 2, 0.5 μM GST-ACT10 with BGFL): ~10 M⁻¹ s⁻¹; stability against denaturation by urea ([5]; 4 M urea): high stability
	^NAGT: 182 amino acid mutant of ^wtAGT, SEQ ID NO:2, starting point for directed evolution (protein, O6-alkylguanine-DNA alkyltransferase (AGT) mutant) MDKDCEMKRTTLDSPLGKLELSGCEQGLHEIIFLGKGTSAADAVEVPAPAAVLGGPEPLMQATAWLNAYFHQPEAIEEFPVPALHHPVFQQESFTRQVLWKLLKVVKFGEVISYSHLAALAGNPAATAAVKTALSGNPVPILIPCHRVVQGDLDVGGYEGGLAVKEWLLAHEGHRLGKPGLG		26 s⁻¹ M⁻¹	28000 s⁻¹ M⁻¹		higher activity towards benzylguanine derivatives than wild-type ^wtAGT [6]: approximately 50 fold
	ACT 1: alkylcytosine transferase 1, SEQ ID NO:1, derived from ^NAGT by directed evolution (protein, alkylcytosine transferase 1 derived from O6- alkylguanine-DNA alkyltransferase) MDKDCEMKRTTLDSPLGKLELSGCEQGLHEIIFLGKGTSAADAVEVPAPAAVLGGPEPLMQATAWLNAYFHQPEAIEEFPVPALHHPVFQQESFTRQVLWKLLKVVKFGEVISRSHLAALAGNPAATAAVSTALDGNPVPILIPCHREVQGDLDVGGYMGGLAVKEWLLAHEGHRLGKPGLG		730 s⁻¹ M⁻¹	<10 s⁻¹ M⁻¹	2.8 ± 0.1 M	

Molecule	labelling of 6×His-^NAGT [1]	labelling of GST-ACT1 [2]	kBCFL [3]	kBGFL [4]	half unfolding urea concentration C1/2 [5]	also measured
Nc1ccnc(OCc2ccc(CNC(=O)c3ccc4c(c3)C3(OC4=O)c4ccc(O)cc4Oc4cc(O)ccc43)cc2)n1 [BCFL, N-[4-(4-Aminopyrimidin-2-yloxymethyl)-benzyl]-fluorescein-6-carboxamide]	76%	complete labelling				
